For assay [1], the target named is T1, muFcγRIV-aviHis-biotin (murine, UniProt A0A0B4J1G0 21-203, Biotin on the lysine of the Avi tag (tag left out of the letters); C-terminal His tag used for capture by the anti-Penta His antibody).
T1 construct: Captured on an anti-Penta His antibody on a CM5 chip; also called murine FcγRIV; not shown: Avi-His tag (and any linker to it)
T1 sequence: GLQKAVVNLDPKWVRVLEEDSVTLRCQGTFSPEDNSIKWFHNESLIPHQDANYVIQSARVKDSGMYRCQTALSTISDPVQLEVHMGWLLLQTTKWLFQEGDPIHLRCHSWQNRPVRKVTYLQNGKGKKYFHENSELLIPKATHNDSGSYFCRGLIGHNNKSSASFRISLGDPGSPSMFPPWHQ
The assay is described as follows: SPR Biacore T100, 25 °C, kinetic fit; receptor captured via anti-Penta His. The procedure: (§1) For analyzing interaction of different Fc-variants with human FcγRIIIa-V158 and murine FcγRIV direct coupling of around 6,500 resonance units (RU) of the anti-Penta His antibody (Qiagen) is performed on a CM5 chip at pH 5.0 using the standard amine coupling kit (Biacore, Freiburg/Germany). HuFcγRIIIa-V158-K6H6 and muFcγRIV-aviHis-biotin are captured for 60 s at 4 and 10 nM respectively.
(§2) Constructs with different Fc-mutations are passed through the flow cells for 120 s at a concentration of 1000 nM with a flow rate of 30 μl/min. The dissociation is monitored for 220 s. Bulk refractive index differences are corrected for by subtracting the response obtained in a reference flow cell. Here, the Fc-variants are flown over a surface with immobilized anti-Penta His antibody but on which HBS-EP has been injected rather than HuFcγRIIIa-V158-K6H6 or muFcγRIV-aviHis-biotin. Affinity for human FcγRIIIa-V158 and murine FcγRIV was determined for wild-type Fc using a concentration range from 500-4000 nM.
(§3) The steady state response was used to derive the dissociation constant KD by non-linear curve fitting of the Langmuir binding isotherm. Kinetic constants were derived using the Biacore T100 Evaluation Software (vAA, Biacore AB, Uppsala/Sweden), to fit rate equations for 1:1 Langmuir binding by numerical integration.
On the technique in general: In SPR one partner is held on a chip, and binding of the other changes the refractive index at the surface.

The target of assay [2] is T2, HuFcγRIIIa-V158-K6H6 (human, UniProt P08637 17-208).
T2 construct: Captured on an anti-Penta His antibody on a CM5 chip; also called human FcγRIIIa-V158; human FcγRIIIa; not shown: K6H6 tag
In words: SPR Biacore T100, 25 °C, steady state; receptor captured via anti-Penta His, construct 500-4000 nM. The protocol:
as §1, §2, §3

In assay [3] the target is T1, muFcγRIV-aviHis-biotin. The assay is described as above. The procedure: as §1, §2, §3
Assay [4] has as its target T2, HuFcγRIIIa-V158-K6H6. In words: SPR Biacore T100, 25 °C, kinetic fit, one concentration (1000 nM); receptor captured via anti-Penta His. The procedure:
as §1, §2, §3

Assay [5] has as its target T2, HuFcγRIIIa-V158-K6H6. In words: SPR Biacore T100, 25 °C, kinetic fit (value in brackets, not explained); receptor captured via anti-Penta His. The procedure:
as §1, §2, §3

For assay [6], the target named is T3, human MCSP expressed on tumor cells (Colo-38, WM266-4, MV-3) (human, UniProt Q6UVK1 30-2322).
T3 construct: whole, on cells; also called huMCSP; Melanoma-associated Chondroitin Sulfate Proteoglycan
The assay is described as follows: FACS on Colo-38 cells, dose titration. The protocol: (§4) Binding of the different bispecific constructs to CD3 on Jurkat cells (ATCC #TIB-152), and the respective tumor antigen on target cells, was determined by FACS. Briefly, cells were harvested, counted and checked for viability. 0.15-0.2 million cells per well (in PBS containing 0.1% BSA; 90 μl) were plated in a round-bottom 96-well plate and incubated with the indicated concentration of the bispecific constructs and corresponding IgG controls (10 μl) for 30 min at 4° C. For a better comparison, all constructs and IgG controls were normalized to same molarity. […] Bound constructs were detected using a FACSCantoII (Software FACS Diva). The “(scFv)₂” molecule was detected using a FITC-conjugated anti-His antibody (Lucerna, #RHIS-45F-Z). […] Unless otherwise indicated, cells were fixed with 100 μl/well fixation buffer (BD #554655) for 15 min at 4° C. in the dark, centrifuged for 6 min at 400×g and kept in 200 μl/well PBS containing 0.1% BSA until the samples were measured with FACS CantoII. EC50 values were calculated using the GraphPad Prism software.
In another experiment, the purified “2+1 IgG scFab” bispecific construct (SEQ ID NOs 5, 17, 19) and the corresponding anti human MCSP IgG were analyzed by flow cytometry for dose-dependent binding to human MCSP on Colo-38 human melanoma cells, to determine whether the bispecific construct binds to MCSP via one or both of its “arms”.

Assay [7] deals with T4, human CEA expressed on tumor cells (LS-174T, MKN-45, MC38-huCEA) (human, UniProt P06731 35-685).
T4 sequence (looked up): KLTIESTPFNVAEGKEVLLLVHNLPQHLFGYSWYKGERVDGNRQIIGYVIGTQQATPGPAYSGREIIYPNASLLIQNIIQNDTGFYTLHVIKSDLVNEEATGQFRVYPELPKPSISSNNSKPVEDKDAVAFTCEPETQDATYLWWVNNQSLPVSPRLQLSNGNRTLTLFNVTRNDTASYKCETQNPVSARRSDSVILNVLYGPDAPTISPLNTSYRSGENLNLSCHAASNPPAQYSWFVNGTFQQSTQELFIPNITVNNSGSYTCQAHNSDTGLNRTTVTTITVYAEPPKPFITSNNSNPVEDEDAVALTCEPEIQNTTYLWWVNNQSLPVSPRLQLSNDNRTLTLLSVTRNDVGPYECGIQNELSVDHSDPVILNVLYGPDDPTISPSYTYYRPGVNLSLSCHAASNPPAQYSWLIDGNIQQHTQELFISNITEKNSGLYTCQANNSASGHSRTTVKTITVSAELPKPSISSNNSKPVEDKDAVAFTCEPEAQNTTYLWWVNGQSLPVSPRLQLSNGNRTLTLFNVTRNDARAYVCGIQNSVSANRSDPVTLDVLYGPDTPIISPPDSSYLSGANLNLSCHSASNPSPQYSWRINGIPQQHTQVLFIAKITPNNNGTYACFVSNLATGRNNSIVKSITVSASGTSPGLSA
The assay is described as follows: cell-based or functional assay.

Assay [8] has as its target T5, human CD3 expressed on Jurkat cells (human, UniProt P07766 23-207).
T5 construct: CD3 as part of the T cell receptor complex on Jurkat cells; also called huCD3; human CD3 on cells
In words: flow cytometry on Jurkat cells; CL/CH1 exchange; CD3 on Jurkat cells. The procedure: as §4
(§5) As a control, the equivalent maximum concentration of the corresponding IgGs and the background staining due to the labeled 2ndary antibody (goat anti-human FITC-conjugated AffiniPure F(ab′)₂ Fragment, Fcγ Fragment-specific, Jackson Immuno Research Lab #109-096-098) were assessed as well.
On the technique in general: Flow cytometry measures light scatter and fluorescence of single cells or particles in a stream.

Assay [9] addresses T4, human CEA expressed on tumor cells …. In words: flow cytometry on LS-174T cells; CL/CH1 exchange; CEA on LS-174T cells. The procedure:
as §4, §5

Assay [10] deals with T5, human CD3 expressed on Jurkat cells. The assay is described as follows: flow cytometry on Jurkat cells; VL/VH exchange; CD3 on Jurkat cells. The procedure: as §4, §5
For assay [11], the target named is T4, human CEA expressed on tumor cells …. In words: flow cytometry on LS-174T cells; VL/VH exchange; CEA on LS-174T cells. The procedure:
as §4, §5

T2 sequence (P08637 17-208 F176V): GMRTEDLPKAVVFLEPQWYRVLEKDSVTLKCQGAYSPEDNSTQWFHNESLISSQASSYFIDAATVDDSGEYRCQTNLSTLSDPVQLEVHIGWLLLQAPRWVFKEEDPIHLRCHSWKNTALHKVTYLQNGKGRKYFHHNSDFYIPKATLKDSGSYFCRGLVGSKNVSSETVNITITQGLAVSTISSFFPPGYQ
T5 sequence (P07766 23-207 limits assumed): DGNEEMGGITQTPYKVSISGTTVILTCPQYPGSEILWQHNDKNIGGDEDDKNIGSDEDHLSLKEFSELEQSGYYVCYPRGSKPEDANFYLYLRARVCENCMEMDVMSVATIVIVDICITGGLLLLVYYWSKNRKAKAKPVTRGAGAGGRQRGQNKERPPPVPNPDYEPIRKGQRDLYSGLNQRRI
T3 sequence (Q6UVK1 30-2322): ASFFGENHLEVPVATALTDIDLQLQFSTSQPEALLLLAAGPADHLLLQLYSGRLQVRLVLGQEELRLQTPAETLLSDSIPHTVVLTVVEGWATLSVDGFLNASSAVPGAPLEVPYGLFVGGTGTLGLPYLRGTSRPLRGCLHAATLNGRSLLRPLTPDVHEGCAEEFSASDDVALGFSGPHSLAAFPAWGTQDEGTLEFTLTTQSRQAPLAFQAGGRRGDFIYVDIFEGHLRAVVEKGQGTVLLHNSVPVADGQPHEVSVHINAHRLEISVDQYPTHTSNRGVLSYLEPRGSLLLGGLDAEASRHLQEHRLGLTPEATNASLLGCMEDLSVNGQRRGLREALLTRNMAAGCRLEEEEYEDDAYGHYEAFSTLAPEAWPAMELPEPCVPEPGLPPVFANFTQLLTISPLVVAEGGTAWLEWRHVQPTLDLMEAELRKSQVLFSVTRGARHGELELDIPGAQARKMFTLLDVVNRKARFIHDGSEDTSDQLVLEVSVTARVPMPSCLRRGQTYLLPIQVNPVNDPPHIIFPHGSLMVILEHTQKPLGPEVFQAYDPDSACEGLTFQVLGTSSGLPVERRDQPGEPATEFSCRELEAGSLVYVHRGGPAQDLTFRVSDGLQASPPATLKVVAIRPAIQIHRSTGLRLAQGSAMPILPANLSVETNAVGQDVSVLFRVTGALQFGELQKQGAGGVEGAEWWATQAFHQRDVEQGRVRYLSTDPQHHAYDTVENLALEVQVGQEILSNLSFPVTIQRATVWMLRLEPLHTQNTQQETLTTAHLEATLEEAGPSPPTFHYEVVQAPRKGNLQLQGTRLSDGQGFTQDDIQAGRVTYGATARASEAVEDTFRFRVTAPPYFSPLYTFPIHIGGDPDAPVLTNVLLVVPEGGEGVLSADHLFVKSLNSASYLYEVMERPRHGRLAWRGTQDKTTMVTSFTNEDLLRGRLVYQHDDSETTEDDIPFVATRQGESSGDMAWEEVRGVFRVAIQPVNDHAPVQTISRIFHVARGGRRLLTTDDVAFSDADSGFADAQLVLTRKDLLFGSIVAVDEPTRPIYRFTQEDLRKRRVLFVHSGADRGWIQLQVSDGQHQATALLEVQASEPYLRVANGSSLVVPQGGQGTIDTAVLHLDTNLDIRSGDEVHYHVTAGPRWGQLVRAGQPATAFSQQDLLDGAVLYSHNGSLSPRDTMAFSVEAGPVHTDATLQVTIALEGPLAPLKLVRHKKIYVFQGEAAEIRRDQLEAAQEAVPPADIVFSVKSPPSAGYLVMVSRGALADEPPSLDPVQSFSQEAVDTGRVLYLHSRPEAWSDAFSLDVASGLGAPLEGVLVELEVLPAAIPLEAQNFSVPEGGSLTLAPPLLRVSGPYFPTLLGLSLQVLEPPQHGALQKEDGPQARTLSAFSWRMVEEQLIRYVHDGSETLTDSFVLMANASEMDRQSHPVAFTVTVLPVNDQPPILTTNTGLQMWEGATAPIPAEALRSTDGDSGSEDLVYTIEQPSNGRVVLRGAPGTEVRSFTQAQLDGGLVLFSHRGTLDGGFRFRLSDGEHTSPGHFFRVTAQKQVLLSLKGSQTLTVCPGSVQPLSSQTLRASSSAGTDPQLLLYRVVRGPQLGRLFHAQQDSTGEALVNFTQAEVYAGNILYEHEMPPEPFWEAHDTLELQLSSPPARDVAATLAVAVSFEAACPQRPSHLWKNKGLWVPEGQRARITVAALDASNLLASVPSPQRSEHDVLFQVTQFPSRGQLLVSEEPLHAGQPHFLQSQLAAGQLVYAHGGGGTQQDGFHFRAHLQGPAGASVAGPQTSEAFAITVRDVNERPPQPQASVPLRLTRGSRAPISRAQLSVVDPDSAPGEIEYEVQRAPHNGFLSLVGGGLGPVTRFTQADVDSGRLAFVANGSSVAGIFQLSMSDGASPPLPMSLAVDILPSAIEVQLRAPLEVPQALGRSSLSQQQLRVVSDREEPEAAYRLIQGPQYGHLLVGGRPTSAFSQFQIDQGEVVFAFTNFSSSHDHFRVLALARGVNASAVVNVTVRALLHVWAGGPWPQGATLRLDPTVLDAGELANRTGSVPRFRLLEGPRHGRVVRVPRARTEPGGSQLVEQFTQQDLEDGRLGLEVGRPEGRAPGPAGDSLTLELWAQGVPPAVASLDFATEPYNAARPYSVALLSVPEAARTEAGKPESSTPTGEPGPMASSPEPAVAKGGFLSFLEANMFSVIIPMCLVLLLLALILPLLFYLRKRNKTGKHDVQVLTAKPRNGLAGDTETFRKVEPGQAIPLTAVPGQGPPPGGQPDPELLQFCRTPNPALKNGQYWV

B1: “2+1 IgG scFab, wt” (anti-MCSP/anti-huCD3) (bispecific antibody)
chain 1: DIVLTQSPSSLSASLGDRVTISCSASQGIRNYLNWYQQRPDGTVKLLIYYTSSLHSGVPSRFSGSGSGTDYSLTISNLEPEDIATYYCQQYSKLPWTFGGGTKLEIKRTVAAPSVFIFPPSDEQLKSGTASVVCLLNNFYPREAKVQWKVDNALQSGNSQESVTEQDSKDSTYSLSSTLTLSKADYEKHKVYACEVTHQGLSSPVTKSFNRGEC
chain 2: not shown
chain 3: not shown
notes: Wild-type Fc domain; vectors transfected 1:2:1 (heavy chain : light chain : heavy chain-scFab); also called Fc-wt; copies: 2 + 1 + 1
As a reminder, the Kd is a measure of binding affinity in units of concentration. Lower therefore signals tighter binding. Regarding B1, the Kd in assay [1] came to 576 nM; in assay [2], 3.47 µM; in assay [3], 1500 nM; in assay [4] it was 600 nM; in [5], 1200 nM.

B2: “2+1 IgG scFab, LALA” (anti-MCSP/anti-huCD3) (bispecific antibody)
chain 1: B1 chain 1
chain 2: not shown
chain 3: EVQLQESGPGLVKPSQSLSLTCSVTGYSITSGYYWNWIRQFPGNKLEWMGYITYDGSNNYNPSLKNRISITRDTSKNQFFLKLNSVTTEDTATYYCADFDYWGQGTTLTVSSASTKGPSVFPLAPSSKSTSGGTAALGCLVKDYFPEPVTVSWNSGALTSGVHTFPAVLQSSGLYSLSSVVTVPSSSLGTQTYICNVNHKPSNTKVDKKVEPKSCDKTHTCPPCPAPEAAGGPSVFLFPPKPKDTLMISRTPEVTCVVVDVSHEDPEVKFNWYVDGVEVHNAKTKPREEQYNSTYRVVSVLTVLHQDWLNGKEYKCKVSNKALPAPIEKTISKAKGQPREPQVCTLPPSRDELTKNQVSLSCAVKGFYPSDIAVEWESNGQPENNYKTTPPVLDSDGSFFLVSKLTVDKSRWQQGNVFSCSVMHEALHNHYTQKSLSLSPGK
notes: also called Fc-LALA; copies: 2 + 1 + 1
One may read the EC50 (read off the curve) as the concentration needed to bring the measured effect to its halfway point. A high value points to a less potent agent. With B2, the “EC50 (read off the curve)” value in assay [6] is about 60 pM. The molecule also registered a Kd in [4] of 2130 nM.

B3: “2+1 IgG Crossfab, inverted”; CL/CH1 exchange (CH1A1A/V9) (anti-CEA/anti-huCD3) (bispecific antibody)
chain 1: QVQLVQSGAEVKKPGASVKVSCKASGYTFTEFGMNWVRQAPGQGLEWMGWINTKTGEATYVEEFKGRVTFTTDTSTSTAYMELRSLRSDDTAVYYCARWDFAYYVEAMDYWGQGTTVTVSSASTKGPSVFPLAPSSKSTSGGTAALGCLVKDYFPEPVTVSWNSGALTSGVHTFPAVLQSSGLYSLSSVVTVPSSSLGTQTYICNVNHKPSNTKVDKKVEPKSCDKTHTCPPCPAPEAAGGPSVFLFPPKPKDTLMISRTPEVTCVVVDVSHEDPEVKFNWYVDGVEVHNAKTKPREEQYNSTYRVVSVLTVLHQDWLNGKEYKCKVSNKALGAPIEKTISKAKGQPREPQVCTLPPSRDELTKNQVSLSCAVKGFYPSDIAVEWESNGQPENNYKTTPPVLDSDGSFFLVSKLTVDKSRWQQGNVFSCSVMHEALHNHYTQKSLSLSPGK
chain 2: DIQMTQSPSSLSASVGDRVTITCKASAAVGTYVAWYQQKPGKAPKLLIYSASYRKRGVPSRFSGSGSGTDFTLTISSLQPEDFATYYCHQYYTYPLFTFGQGTKLEIKRTVAAPSVFIFPPSDEQLKSGTASVVCLLNNFYPREAKVQWKVDNALQSGNSQESVTEQDSKDSTYSLSSTLTLSKADYEKHKVYACEVTHQGLSSPVTKSFNRGEC
chain 3: DIQMTQSPSSLSASVGDRVTITCRASQDIRNYLNWYQQKPGKAPKLLIYYTSRLESGVPSRFSGSGSGTDYTLTISSLQPEDFATYYCQQGNTLPWTFGQGTKVEIKSSASTKGPSVFPLAPSSKSTSGGTAALGCLVKDYFPEPVTVSWNSGALTSGVHTFPAVLQSSGLYSLSSVVTVPSSSLGTQTYICNVNHKPSNTKVDKKVEPKSC
chain 4: not shown
notes: also called CL/CH1-exchange construct
As a reminder, the EC50 is the midpoint of the concentration-response curve. Read a low EC50 as higher potency in that assay. In the case of B3, in assay [7], the “EC50 of killing (LDH release) of LS-174T cells, human PBMCs, E:T 10:1, 28 h” value was found to be 673 pM and the “EC50 of killing (LDH release) of MKN-45 cells, human PBMCs, E:T 10:1, 28 h” value amounted to 115 pM. The same molecule had a half-maximal effective concentration (EC50) in assay [8] of 3.9 nM. In addition, the midpoint of the response in [9], the EC50, lay at 6.7 nM.

B4: “2+1 IgG Crossfab, inverted”; VL/VH exchange (CH1A1A/V9) (anti-CEA/anti-huCD3) (bispecific antibody)
chain 1: EVQLVESGGGLVQPGGSLRLSCAASGYSFTGYTMNWVRQAPGKGLEWVALINPYKGVSTYNQKFKDRFTISVDKSKNTAYLQMNSLRAEDTAVYYCARSGYYGDSDWYFDVWGQGTLVTVSSASVAAPSVFIFPPSDEQLKSGTASVVCLLNNFYPREAKVQWKVDNALQSGNSQESVTEQDSKDSTYSLSSTLTLSKADYEKHKVYACEVTHQGLSSPVTKSFNRGEC
chain 2: not shown
chain 3: B3 chain 1
chain 4: B3 chain 2
notes: also called VL/VH-exchange construct
On to B4, for which, in assay [7], the “EC50 of killing (LDH release) of LS-174T cells, human PBMCs, E:T 10:1, 28 h” value worked out at 955 pM and the “EC50 of killing (LDH release) of MKN-45 cells, human PBMCs, E:T 10:1, 28 h” value stood at 243 pM. Further, a half-maximal response in assay [10] (EC50) required 4.6 nM. The molecule further returned a 50% effective concentration (EC50) in assay [11] of 9.3 nM.

Values taken from patent publication US20250043028A1 (Hoffmann-La Roche, published 2025).
